Measurements from IntAct's records for PubMed 19264842.

B1: 1-phosphatidylinositol 4,5-bisphosphate phosphodiesterase gamma-1 (Homo sapiens), P19174 (parent)
chain: MAGAASPCANGCGPGAPSDAEVLHLCRSLEVGTVMTLFYSKKSQRPERKTFQVKLETRQITWSRGADKIEGAIDIREIKEIRPGKTSRDFDRYQEDPAFRPDQSHCFVILYGMEFRLKTLSLQATSEDEVNMWIKGLTWLMEDTLQAPTPLQIERWLRKQFYSVDRNREDRISAKDLKNMLSQVNYRVPNMRFLRERLTDLEQRSGDITYGQFAQLYRSLMYSAQKTMDLPFLEASTLRAGERPELCRVSLPEFQQFLLDYQGELWAVDRLQVQEFMLSFLRDPLREIEEPYFFLDEFVTFLFSKENSVWNSQLDAVCPDTMNNPLSHYWISSSHNTYLTGDQFSSESSLEAYARCLRMGCRCIELDCWDGPDGMPVIYHGHTLTTKIKFSDVLHTIKEHAFVASEYPVILSIEDHCSIAQQRNMAQYFKKVLGDTLLTKPVEISADGLPSPNQLKRKILIKHKKLAEGSAYEEVPTSMMYSENDISNSIKNGILYLEDPVNHEWYPHYFVLTSSKIYYSEETSSDQGNEDEEEPKEVSSSTELHSNEKWFHGKLGAGRDGRHIAERLLTEYCIETGAPDGSFLVRESETFVGDYTLSFWRNGKVQHCRIHSRQDAGTPKFFLTDNLVFDSLYDLITHYQQVPLRCNEFEMRLSEPVPQTNAHESKEWYHASLTRAQAEHMLMRVPRDGAFLVRKRNEPNSYAISFRAEGKIKHCRVQQEGQTVMLGNSEFDSLVDLISYYEKHPLYRKMKLRYPINEEALEKIGTAEPDYGALYEGRNPGFYVEANPMPTFKCAVKALFDYKAQREDELTFIKSAIIQNVEKQEGGWWRGDYGGKKQLWFPSNYVEEMVNPVALEPEREHLDENSPLGDLLRGVLDVPACQIAIRPEGKNNRLFVFSISMASVAHWSLDVAADSQEELQDWVKKIREVAQTADARLTEGKIMERRKKIALELSELVVYCRPVPFDEEKIGTERACYRDMSSFPETKAEKYVNKAKGKKFLQYNRLQLSRIYPKGQRLDSSNYDPLPMWICGSQLVALNFQTPDKPMQMNQALFMTGRHCGYVLQPSTMRDEAFDPFDKSSLRGLEPCAISIEVLGARHLPKNGRGIVCPFVEIEVAGAEYDSTKQKTEFVVDNGLNPVWPAKPFHFQISNPEFAFLRFVVYEEDMFSDQNFLAQATFPVKGLKTGYRAVPLKNNYSEDLELASLLIKIDIFPAKENGDLSPFSGTSLRERGSDASGQLFHGRAREGSFESRYQQPFEDFRISQEHLADHFDSRERRAPRRTRVNGDNRL

Variants of: B1
Settings: with rac1_human RAC1, P63000
For P842L, the “effect of a mutation on the interaction” value was “disrupting interaction”.
